Experimental data as given in the supplement of paper PMC10567573.

B1: APBB1IP (parent)
chain: FNYSVGFKDLNESLNALEDQDLDA
B2: RBBP5 (parent)
chain: TGTSNTTAIKSIEFARKGSCFLIN

Variants of: B1
Assay: protein stability index of a GFP-peptide fusion (GPS, HEK-293T) (PSI 1-6); higher = more stable
Settings: c terminus: a fixed tail appended
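Also: lentivirally expressed fusions sorted by FACS into six bins by GFP to DsRed ratio, PSI derived from sequencing read proportions per bin multiplied by bin number.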

Protein stability index, by site and new letter:
A16: H 4.37, I 4, K 4.36, L 4.04, M 4.1, N 4.51, P 4.33, Q 4.52, R 4.14, S 4.19, T 4.57, V 3.47, W 3.41, Y 3.93
L17: A 4.63, C 4.48, D 5.25, E 5.04, F 4.43, G 4.51, H 4.18, I 4.68, K 4.48, M 4.17, N 5.02, P 4.65, Q 4.88, R 5.01, S 4.78, T 5.18, V 4.68, W 3.85, Y 3.96
E18: A 3.66, C 3.56, D 4.34, F 2.79, G 3.96, H 3.92, I 2.67, K 3.82, L 3.24, M 3.59, N 4.06, P 4.51, Q 3.98, R 2.87, S 3.71, T 3.44, V 3.35, W 2.52, Y 2.95
D19: A 3.97, C 4.06, E 4.53, F 3, G 4.36, H 3.7, I 3.86, K 4.5, L 3.53, M 3.05, N 4.04, P 3.65, Q 3.83, R 3.67, S 3.73, T 3.86, V 3.56, W 3.42, Y 3.93
Q20: A 4.42, C 4.02, D 4.4, E 4.69, F 3.57, G 4.57, H 4.42, I 3.97, K 4.2, L 3.88, M 3.7, N 4.53, P 3.97, R 3.21, S 3.97, T 4.84, V 4, W 3.7, Y 3.85
D21: A 3.69, C 3.57, E 4.25, F 2.34, G 3.94, H 3.33, I 2.81, K 4.19, L 2.8, M 3.83, N 4.07, P 3.77, Q 3.75, R 3, S 4.33, T 4.14, V 3.38, W 2.43, Y 2.38
L22: A 5.06, C 4.62, D 4.68, E 5.45, F 4.49, G 5.28, H 4.96, I 4.74, K 4.86, M 4.72, N 4.79, P 4.92, Q 4.67, R 4.5, S 4.76, T 4.82, V 4.6, W 3.86, Y 4.37
D23: A 3.79, C 3.33, E 4.22, F 2.44, G 4.41, H 3.69, I 3.56, K 3.87, L 3.14, M 2.86, N 4.31, P 4.38, Q 4.22, R 3.81, S 4.02, T 3.85, V 3.18, W 1.81, Y 2.57
A24: C 4.24, D 4.68, E 4.91, F 3.85, G 3.68, H 4.52, I 4.07, K 4.81, L 4.09, M 3.85, N 4.5, P 4.42, Q 4.72, R 3.83, S 4.59, T 4.45, V 4.5, W 3.77, Y 3.55

Variants of: B2
Assay: as above
Settings: c terminus: a fixed tail appended

Protein stability index, by site and new letter:
S4: F 1.97, H 2.3, E 2.35, L 2.17, P 2.01, D 2.35, N 2.36, M 2.21, Y 2.41
A15: V 1.66, R 2.22, L 2.58, C 1.89, S 2.09, T 1.79
T1: A 2.15, G 2.19, S 2.2, F 1.88, M 2.43, Y 1.79, I 1.79, D 3.69, L 2.11, C 1.53
N24: G 2.27, Y 1.96, W 2.71, P 3.12, S 2.04, A 1.89, D 2.85
F21: T 3.5, E 3.73, N 3.53, R 3.15, L 2.07, Y 2.56, Q 3.17, C 2.44
I9: S 2.12, A 2.48, T 2.92, R 2.34, Q 2.62
N5: H 2.12, K 2.15, C 1.93, A 2.1, W 1.64
R16: N 3.21, H 2.15, C 1.77, E 3, Y 2.49, W 1.74, K 2.76, L 3.26, G 2.42, A 1.89, Q 2.73
K17: G 2.24, N 2.63, M 1.73, Y 2.22, V 1.7, A 2.24, E 2.6, P 2.3
A8: K 2.2, E 2.71, V 1.58, R 1.62, P 2.69, G 2.84, Y 2.22, C 2.71, L 2.17, N 2.56
I12: C 2.67, Y 2.12, D 2.79, W 2.4, L 1.78, H 2.94, R 2.57, K 2.23, Q 3.29, F 2, N 2.67, M 2.61, G 2.4
T7: F 1.93, S 2.4, C 1.26, G 2.56, L 1.77, M 1.95
L22: R 2.81, T 3.09, P 3.53, S 3.05, Q 3.48, A 2.33, N 3.09
K10: E 2.62, M 1.94, T 1.77, L 2.74, C 2.38, H 2.77
T6: K 2.15, W 1.74, I 1.63, A 2.87, S 2.64, E 2.82, R 1.55
S11: F 2.45, I 3.31, P 2.61, W 2.77, A 2.18
S19: G 1.93, E 2.33, L 2.56, N 2.17, P 2.04, F 1.61, K 2.92
I23: H 2.79, L 2.05, W 2.36, E 3.38, K 3.62, S 3.1, T 3.5, N 2.99, M 2.49
G2: Y 3.22, N 2.29, M 2.48, R 2.07, W 2.51, F 1.76, Q 2.47, T 2.14
T3: C 1.98, W 2.02, N 1.86, L 2.17, S 1.9, A 2.15
F14: P 3.05, C 2.53
C20: N 3.03, L 2.25, H 2.16, R 2.55, I 2.23, P 2.74
E13: P 1.75, V 1.54, R 1.72, N 1.75
G18: D 2.89, A 1.9, R 2.15
